Laboratory results taken from US12344663 (CDR LIFE, dated 2025).
Values belong to the binder of their own block, whether it stands above or below them.

Experiments:
[1] = target: T1, human complement C3 (human, UniProt P01024 23-1663); assay: SPR
T1 construct: also called human C3; native human C3

[2] = target: T2, human C3b (human, UniProt P01024 23-667; P01024 749-1663, limits assumed); assay: SPR
T2 construct: domain: C3b; also called C3 cleavage fragments C3b

[3] = target: T1, human complement C3; assay: cell-based or functional assay
[4] = target: T1, human complement C3; assay: affinity of the purified scFv, method not given
[5] = target: T1, human complement C3; assay: method not given; reference Clone IV
[6] = target: T2, human C3b; assay: method not given; reference Clone IV
[7] = target: T1, human complement C3; assay: cell-based or functional assay; remark: listed apart in the source
[8] = target: T1, human complement C3; assay: SPR (Biacore T100), target immobilized, single cycle kinetics, 1:1 Langmuir fit
Procedure: (§1) The kinetic parameters of the candidates are determined using a surface plasmon resonance (SPR) and Biacore T100 device. C3 and different variants thereof (Table 19) are immobilized as a ligand on a HC30M SPR sensor chip (XanTec bionanalytics, Germany) using EDC/[…] linking chemistry. Five increasing concentrations of each molecule (analyte) are consecutively injected using the single cycle kinetics (SCK) mode to determine the kinetic parameters. Regeneration between the candidates is done with 10 mM glycine*HCl, 2 M NaCl, pH 3.5. The data is fitted to a 1:1 Langmuir binding model and the kinetic parameters of on-rate (ka), off-rate (kd), and affinity […] were determined.

[9] = target: T2, human C3b; assay: as above
Procedure: as §1

[10] = target: T1, human complement C3; assay: as above; remark: listed apart in the source
Procedure: as §1

[11] = target: T2, human C3b; assay: as above; remark: listed apart in the source
Procedure: as §1

[12] = target: T3, cynomolgus C3 (cynomolgus (Macaca fascicularis)); assay: as above
T3 construct: also called cyno C3
Procedure: as §1

[13] = target: T4, recombinant wild-type human C3 (human, UniProt P01024 23-1663, limits assumed); assay: as above
T4 construct: Expressed in CHO cells with an N-terminal 6×His tag; also called recombinant C3; wildtype C3
Procedure: as §1

[14] = target: T5, human C3 P314L (human, UniProt P01024 23-1663, limits assumed); assay: as above
T5 construct: Expressed in CHO cells with an N-terminal 6×His tag; also called C3 SNP1 P314L; C3 SNP P314L
Procedure: as §1

[15] = target: T6, human C3 R102G (human, UniProt P01024 23-1663, limits assumed); assay: as above
T6 construct: Expressed in CHO cells with an N-terminal 6×His tag; also called C3 SNP2 R102G; C3 SNP R102G
Procedure: as §1

T5 sequence (P01024 other isoform, or with tags, fused parts or gaps P314L P314L limits assumed): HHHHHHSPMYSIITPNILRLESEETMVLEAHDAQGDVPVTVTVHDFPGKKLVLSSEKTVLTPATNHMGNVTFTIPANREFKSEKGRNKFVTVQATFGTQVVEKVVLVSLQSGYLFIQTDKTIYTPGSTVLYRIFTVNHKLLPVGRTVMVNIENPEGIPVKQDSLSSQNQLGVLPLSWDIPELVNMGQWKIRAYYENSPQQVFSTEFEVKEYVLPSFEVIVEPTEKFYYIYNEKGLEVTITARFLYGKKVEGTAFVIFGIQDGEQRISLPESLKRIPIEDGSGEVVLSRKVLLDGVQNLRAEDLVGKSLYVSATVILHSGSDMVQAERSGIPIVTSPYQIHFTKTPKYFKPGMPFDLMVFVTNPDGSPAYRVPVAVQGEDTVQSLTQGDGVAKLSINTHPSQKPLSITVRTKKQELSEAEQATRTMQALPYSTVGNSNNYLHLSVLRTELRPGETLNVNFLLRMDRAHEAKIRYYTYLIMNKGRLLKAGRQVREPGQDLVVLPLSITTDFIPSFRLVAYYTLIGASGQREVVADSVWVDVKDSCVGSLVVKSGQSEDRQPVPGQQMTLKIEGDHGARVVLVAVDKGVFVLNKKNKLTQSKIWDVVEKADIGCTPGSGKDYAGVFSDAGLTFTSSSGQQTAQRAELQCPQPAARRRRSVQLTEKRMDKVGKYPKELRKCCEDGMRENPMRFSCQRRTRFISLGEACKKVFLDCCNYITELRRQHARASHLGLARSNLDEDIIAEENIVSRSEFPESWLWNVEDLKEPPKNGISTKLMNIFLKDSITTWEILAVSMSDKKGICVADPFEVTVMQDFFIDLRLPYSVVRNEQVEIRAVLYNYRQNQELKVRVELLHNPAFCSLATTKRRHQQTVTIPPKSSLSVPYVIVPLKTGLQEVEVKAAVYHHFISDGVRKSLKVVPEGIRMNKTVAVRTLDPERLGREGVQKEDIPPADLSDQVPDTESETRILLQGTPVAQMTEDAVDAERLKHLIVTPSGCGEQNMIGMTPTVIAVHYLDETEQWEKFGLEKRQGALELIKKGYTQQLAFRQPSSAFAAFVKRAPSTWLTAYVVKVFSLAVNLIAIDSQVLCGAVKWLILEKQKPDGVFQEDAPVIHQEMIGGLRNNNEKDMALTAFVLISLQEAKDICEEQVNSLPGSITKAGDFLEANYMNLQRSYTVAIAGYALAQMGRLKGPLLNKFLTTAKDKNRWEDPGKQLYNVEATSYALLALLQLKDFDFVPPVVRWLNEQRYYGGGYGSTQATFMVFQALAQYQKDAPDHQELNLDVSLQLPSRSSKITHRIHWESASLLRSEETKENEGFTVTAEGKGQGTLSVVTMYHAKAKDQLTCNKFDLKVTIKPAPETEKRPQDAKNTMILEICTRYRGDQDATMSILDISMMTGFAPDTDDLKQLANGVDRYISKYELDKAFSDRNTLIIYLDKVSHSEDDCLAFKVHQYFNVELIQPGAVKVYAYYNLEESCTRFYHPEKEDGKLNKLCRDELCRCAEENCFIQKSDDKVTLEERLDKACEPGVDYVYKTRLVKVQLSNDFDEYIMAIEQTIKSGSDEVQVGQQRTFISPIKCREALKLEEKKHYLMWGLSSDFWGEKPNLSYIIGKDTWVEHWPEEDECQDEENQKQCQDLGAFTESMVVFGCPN
T4 sequence (P01024 other isoform, or with tags, fused parts or gaps limits assumed): as the sequence (P01024 other isoform, or with tags, fused parts or gaps P314L P314L limits assumed) above, with L298P counted along it
T6 sequence (P01024 other isoform, or with tags, fused parts or gaps R102G R102G limits assumed): as the sequence (P01024 other isoform, or with tags, fused parts or gaps P314L P314L limits assumed) above, with R86G, L298P counted along it
T1 sequence (P01024 23-1663 limits assumed): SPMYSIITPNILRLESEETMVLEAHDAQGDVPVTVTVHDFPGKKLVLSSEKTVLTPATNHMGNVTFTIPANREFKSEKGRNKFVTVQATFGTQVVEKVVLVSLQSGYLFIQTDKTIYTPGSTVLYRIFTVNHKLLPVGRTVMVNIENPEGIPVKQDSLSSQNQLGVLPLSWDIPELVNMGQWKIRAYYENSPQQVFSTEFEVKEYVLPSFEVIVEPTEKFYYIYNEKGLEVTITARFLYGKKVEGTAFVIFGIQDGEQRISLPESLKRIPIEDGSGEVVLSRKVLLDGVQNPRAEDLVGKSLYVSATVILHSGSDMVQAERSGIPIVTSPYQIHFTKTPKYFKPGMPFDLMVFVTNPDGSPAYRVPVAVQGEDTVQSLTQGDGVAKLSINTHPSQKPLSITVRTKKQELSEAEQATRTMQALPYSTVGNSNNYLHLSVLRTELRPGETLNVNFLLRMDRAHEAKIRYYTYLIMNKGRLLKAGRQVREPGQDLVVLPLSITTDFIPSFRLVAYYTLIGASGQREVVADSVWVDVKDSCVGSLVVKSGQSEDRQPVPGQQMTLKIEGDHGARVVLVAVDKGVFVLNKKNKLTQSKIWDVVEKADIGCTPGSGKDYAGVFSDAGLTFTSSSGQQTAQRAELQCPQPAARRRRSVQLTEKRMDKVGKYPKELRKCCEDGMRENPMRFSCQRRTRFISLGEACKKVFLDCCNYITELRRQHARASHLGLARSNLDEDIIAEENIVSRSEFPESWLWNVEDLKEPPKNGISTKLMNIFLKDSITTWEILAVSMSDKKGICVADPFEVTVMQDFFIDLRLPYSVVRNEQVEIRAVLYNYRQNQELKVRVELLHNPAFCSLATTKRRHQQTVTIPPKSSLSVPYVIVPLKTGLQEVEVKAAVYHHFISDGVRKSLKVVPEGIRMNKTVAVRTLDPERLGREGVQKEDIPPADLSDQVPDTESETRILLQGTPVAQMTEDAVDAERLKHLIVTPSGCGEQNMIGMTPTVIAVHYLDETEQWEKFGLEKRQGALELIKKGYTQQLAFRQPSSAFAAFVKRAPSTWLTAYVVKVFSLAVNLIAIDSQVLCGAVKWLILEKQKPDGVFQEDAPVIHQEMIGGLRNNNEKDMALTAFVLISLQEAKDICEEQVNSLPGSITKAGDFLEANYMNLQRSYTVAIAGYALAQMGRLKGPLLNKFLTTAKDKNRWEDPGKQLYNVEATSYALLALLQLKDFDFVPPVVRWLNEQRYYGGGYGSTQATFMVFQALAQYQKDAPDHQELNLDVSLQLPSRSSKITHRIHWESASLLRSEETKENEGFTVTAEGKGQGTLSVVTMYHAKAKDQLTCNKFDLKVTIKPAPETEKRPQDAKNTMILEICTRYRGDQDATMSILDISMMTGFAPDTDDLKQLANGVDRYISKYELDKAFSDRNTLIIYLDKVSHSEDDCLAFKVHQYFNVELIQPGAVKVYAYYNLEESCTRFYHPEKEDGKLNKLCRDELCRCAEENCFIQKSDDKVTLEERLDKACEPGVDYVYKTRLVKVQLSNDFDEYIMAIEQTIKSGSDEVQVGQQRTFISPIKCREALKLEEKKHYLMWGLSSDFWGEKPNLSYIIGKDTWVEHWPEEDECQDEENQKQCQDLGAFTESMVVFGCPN
T2 sequence (P01024 23-667 limits assumed, chain 1 of 2): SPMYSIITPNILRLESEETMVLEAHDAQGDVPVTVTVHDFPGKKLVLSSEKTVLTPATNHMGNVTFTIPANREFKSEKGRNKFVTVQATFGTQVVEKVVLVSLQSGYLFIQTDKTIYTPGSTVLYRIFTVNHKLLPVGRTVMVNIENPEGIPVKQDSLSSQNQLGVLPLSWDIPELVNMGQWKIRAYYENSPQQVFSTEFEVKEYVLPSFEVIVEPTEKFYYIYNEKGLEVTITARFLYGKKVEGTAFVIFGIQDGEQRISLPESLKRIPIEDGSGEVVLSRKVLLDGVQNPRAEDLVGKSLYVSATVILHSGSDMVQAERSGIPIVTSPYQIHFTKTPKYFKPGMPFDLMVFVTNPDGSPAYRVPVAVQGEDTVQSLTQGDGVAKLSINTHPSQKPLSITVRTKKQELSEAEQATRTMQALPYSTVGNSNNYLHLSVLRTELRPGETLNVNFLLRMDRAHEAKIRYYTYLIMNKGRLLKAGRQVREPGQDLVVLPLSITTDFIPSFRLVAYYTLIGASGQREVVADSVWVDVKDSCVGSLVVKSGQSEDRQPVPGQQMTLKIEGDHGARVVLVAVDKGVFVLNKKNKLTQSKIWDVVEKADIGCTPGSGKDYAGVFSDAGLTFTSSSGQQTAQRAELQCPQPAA
T2 sequence (P01024 749-1663 limits assumed, chain 2 of 2): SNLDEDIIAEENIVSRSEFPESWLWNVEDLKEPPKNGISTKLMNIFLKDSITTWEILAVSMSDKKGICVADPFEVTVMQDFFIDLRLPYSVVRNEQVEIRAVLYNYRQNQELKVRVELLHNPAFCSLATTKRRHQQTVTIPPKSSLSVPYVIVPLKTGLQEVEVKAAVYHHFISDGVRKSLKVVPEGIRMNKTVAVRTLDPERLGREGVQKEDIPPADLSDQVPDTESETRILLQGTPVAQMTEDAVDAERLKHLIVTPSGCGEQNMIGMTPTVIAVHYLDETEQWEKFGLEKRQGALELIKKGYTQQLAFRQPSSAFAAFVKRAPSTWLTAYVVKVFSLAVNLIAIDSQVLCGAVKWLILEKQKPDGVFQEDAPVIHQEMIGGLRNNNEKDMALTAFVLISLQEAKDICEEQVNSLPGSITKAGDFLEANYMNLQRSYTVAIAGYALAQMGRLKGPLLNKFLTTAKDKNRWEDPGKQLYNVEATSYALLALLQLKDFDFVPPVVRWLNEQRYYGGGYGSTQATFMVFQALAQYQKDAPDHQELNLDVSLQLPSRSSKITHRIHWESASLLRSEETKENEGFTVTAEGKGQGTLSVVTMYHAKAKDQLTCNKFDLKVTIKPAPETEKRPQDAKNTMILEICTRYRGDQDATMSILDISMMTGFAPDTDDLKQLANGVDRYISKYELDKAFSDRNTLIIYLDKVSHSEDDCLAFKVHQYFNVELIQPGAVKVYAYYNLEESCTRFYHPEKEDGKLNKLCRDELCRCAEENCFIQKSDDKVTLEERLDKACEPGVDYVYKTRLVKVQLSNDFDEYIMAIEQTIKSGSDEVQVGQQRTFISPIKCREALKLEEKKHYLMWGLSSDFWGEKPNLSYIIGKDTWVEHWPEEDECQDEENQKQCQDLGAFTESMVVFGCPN

B1: Clone XIII (scFv)
scFv: MQLVLTQSPSASASLGASVKLTCTLSSAHKTYTIDWYQQQPEKCPRYLMQLKSEGSYTKGTGVPDRFSGSSSGAERYLTISSLQSEDEADYYCGTEGVGGYVFGGGTKLTVLGGGGGSGGGGSGGGGSGGGGSQVQVVESGGGSVQPGRSLRLSCAVSGFSLYNYAMNWVRQAPGKGLEWIGIINVGGGTNYASWAKGRFTISTDNSKNTVYLQMNSLRAEDTASYYCARAVGYHHARLDPWGCGTSVTVSS
Kd [1]: 0.116 nM | Kd [2]: 0.11 nM | IC50, complement inhibition in the alternative pathway [3]: 260 nM | IC50, complement inhibition in the classical pathway [3]: 60 nM

B2: Clone IX (scFv)
scFv: MQLVLTQSPSASASLGASVKLTCTLSSAHKTYTIDWYQQQPEKGPRYLMQLKSEGSYTKGTGVPDRFSGSSSGAERYLTISSLQSEDSAVYYCGTDGVGGYVFGCGTKLTVLGGGGGSGGGGSGGGGSGGGGSQVQVVESGGGSVQPGRSLRLSCAVSGFSLYNYAMNWVRQAPGKCLEWIGIINVGGGTNYASWAKGRFTISTDNSKNTVYLQMNSLRAEDTASYYCARAVGYHHHALDPWGQGTSVTVSS
Kd [4]: 1.3 nM

B7: Clone IV (scFv)
scFv: QSVKESGGRLVTPGTPLTLTCTVSGFSLYNYAMNWVRQAPGKGLEWIGIINTDGNTNYASWAKGRFTISTTSSTTVDLKITSPTTEDTATYFCPRAVGYHHHALDPWGPGTLVTVSSGGGGSGGGGSGGGGSGGGGASELVLTQSPSVSAALGASAKLTCTLSSAHKTYTIDWYQQQQGEAPRYLMQLKSDGSYTKGTGVPDRFSGSSSGADRYLIIPSVQADDEADYYCGTDYGGGYVFGGGTQLTVTG
IC50, complement inhibition in the alternative pathway [3]: 280 nM | IC50, complement inhibition in the classical pathway [3]: 80 nM

B8: Clone II (scFv)
scFv: MQLVLTQSPSASASLGASVKLTCTLSSAHKTYTIDWYQQQPEKCPRYLMQLKSDGSYTKGSGIPDRFSGSSSGAERYLTISSLQSEDEADYYCGTEGVGGYVFGGGTKLTVLGGGGGSGGGGSGGGGSGGGGSQVQLVESGGGSVQPGRSLRLSCAASGFTFSNYAMNWVRQAPGKGLEWVAIINVGGGTNYADSVKGRFTISRDNSKNTLYLQMNSLRAEDTASYYCARAVGYHHARLDPWGCGTSVTVSS
notes: also called scFv of the invention
IC50 (nM), Alternative Pathway, Hemolysis (rabbit erythrocytes, human serum) [7]: 668 nM | IC50 (nM), Alternative Pathway, MAC deposition (WEISLAB, human serum) [7]: 360 nM | IC50 (nM), Classical Pathway, Hemolysis (antibody-sensitized sheep erythrocytes, human serum) [7]: 69 nM | IC50 (nM), Classical Pathway, MAC deposition (WEISLAB, human serum) [7]: 77 nM | IC50 (nM), Lectin Pathway, MAC deposition (WEISLAB, human serum) [7]: 71 nM | Kd [8]: 0.022 nM | Kd [9]: 0.05 nM | Kd [10]: 0.022 nM | koff [10]: 5.5e-06 s⁻¹ | kon [10]: 250000 M⁻¹ s⁻¹ | Kd [11]: 0.05 nM | koff [11]: 1.2e-05 s⁻¹ | kon [11]: 250000 M⁻¹ s⁻¹ | Kd [12]: 0.07 nM | koff [12]: 1.5e-05 s⁻¹ | kon [12]: 210000 M⁻¹ s⁻¹ | Kd [13]: 0.035 nM | koff [13]: 1e-05 s⁻¹ | kon [13]: 300000 M⁻¹ s⁻¹ | Kd [14]: < 0.04 nM | koff [14]: < 1.1e-05 s⁻¹ | kon [14]: 290000 M⁻¹ s⁻¹ | Kd [15]: 0.021 nM | koff [15]: 7e-06 s⁻¹ | kon [15]: 330000 M⁻¹ s⁻¹

B9: Clone III (scFv)
scFv: MQLVLTQSPSASASLGASVKLTCTLSSAHKTYTIDWYQQQPEKCPRYLMQLKSEGSYTKGSGIPDRFSGSSSGAERYLTISSLQSEDEADYYCGTEGVGGYVFGGGTKLTVLGGGGGSGGGGSGGGGSGGGGSQVQLVESGGGSVQPGRSLRLSCAASGFTFSNYAMNWVRQAPGKGLEWVAIINVGGGTNYADSVKGRFTISRDNSKNTLYLQMNSLRAEDTASYYCARAVGYHHARLDPWGCGTSVTVSS
notes: as for B8
IC50 (nM), Alternative Pathway, Hemolysis (rabbit erythrocytes, human serum) [7]: 745 nM | IC50 (nM), Alternative Pathway, MAC deposition (WEISLAB, human serum) [7]: 349 nM | IC50 (nM), Classical Pathway, Hemolysis (antibody-sensitized sheep erythrocytes, human serum) [7]: 72 nM | IC50 (nM), Classical Pathway, MAC deposition (WEISLAB, human serum) [7]: 73 nM | IC50 (nM), Lectin Pathway, MAC deposition (WEISLAB, human serum) [7]: 64 nM | Kd [8]: 0.151 nM | Kd [9]: 0.127 nM | Kd [10]: 0.151 nM | koff [10]: 3.6e-05 s⁻¹ | kon [10]: 240000 M⁻¹ s⁻¹ | Kd [11]: 0.127 nM | koff [11]: 3.1e-05 s⁻¹ | kon [11]: 250000 M⁻¹ s⁻¹ | Kd [12]: 0.208 nM | koff [12]: 4.3e-05 s⁻¹ | kon [12]: 200000 M⁻¹ s⁻¹ | Kd [13]: 0.128 nM | koff [13]: 3.5e-05 s⁻¹ | kon [13]: 270000 M⁻¹ s⁻¹ | Kd [14]: 0.127 nM | koff [14]: 3.2e-05 s⁻¹ | kon [14]: 250000 M⁻¹ s⁻¹ | Kd [15]: 0.115 nM | koff [15]: 3.2e-05 s⁻¹ | kon [15]: 280000 M⁻¹ s⁻¹

Further lines, with some results ahead:

Kd [4]: 1.1 nM
B3: Clone VII (scFv)
scFv: MQLVLTQSPSASASLGASVKLTCTLSSAHKTYTIDWYQQQPEKGPRYLMQLKSEGSYTKGTGVPDRFSGSSSGAERYLTISSLQSEDSAVYYCGTEGVGGYVFGCGTKLTVLGGGGGSGGGGSGGGGSGGGGSQVQVVESGGGSVQPGRSLRLSCAVSGFSLYNYAMNWVRQAPGKCLEWIGIINVGGGTNYASWAKGRFTISTDNSKNTVYLQMNSLRAEDTASYYCARAVGYHHHALDPWGQGTSVTVSS

fold increase in the binding affinity compared to Clone IV [5]: ~10 fold | fold increase in the binding affinity compared to Clone IV [6]: ~10 fold | Kd [4]: 0.184 nM
B4: Clone VIII (scFv)
scFv: MQLVLTQSPSASASLGASVKLTCTLSSAHKTYTIDWYQQQPEKGPRYLMQLKSEGSYTKGTGVPDRFSGSSSGAERYLTISSLQSEDSAVYYCGTEGVGGYVFGCGTKLTVLGGGGGSGGGGSGGGGSGGGGSQVQVVESGGGSVQPGRSLRLSCAVSGFSLYNYAMNWVRQAPGKCLEWIGIINVGGGTNYASWAKGRFTISTDNSKNTVYLQMNSLRAEDTASYYCARAVGYHHSRLDPWGQGTSVTVSS

Kd [1]: 4.7 nM | Kd [2]: 4.8 nM | IC50, complement inhibition in the alternative pathway [3]: 210 nM | IC50, complement inhibition in the classical pathway [3]: 98 nM
B5: Clone XII (scFv)
scFv: MQLVLTQSPSASASLGASVKLTCTLSSAHKTYTIDWYQQQPEKCPRYLMQLKSEGSYTKGTGVPDRFSGSSSGAERYLTISSLQSEDEADYYCGTDYGGGYVFGGGTKLTVLGGGGGSGGGGSGGGGSGGGGSQVQVVESGGGSVQPGRSLRLSCAVSGFSLYNYAMNWVRQAPGKGLEWIGIINVGGGTNYASWAKGRFTISTDNSKNTVYLQMNSLRAEDTASYYCARAVGYHHARLDPWGCGTSVTVSS

Kd [1]: 0.129 nM | Kd [2]: 0.116 nM | IC50, complement inhibition in the alternative pathway [3]: 250 nM | IC50, complement inhibition in the classical pathway [3]: 50 nM
B6: Clone XIV (scFv)
scFv: MQLVLTQSPSASASLGASVKLTCTLSSAHKTYTIDWYQQQPEKCPRYLMQLKSEGSYTKGTGVPDRFSGSSSGAERYLTISSLQSEDEADYYCGTEGVGGYVFGGGTKLTVLGGGGGSGGGGSGGGGSGGGGSQVQVVESGGGSVQPGRSLRLSCAVSGFSLYNYAMNWVRQAPGKGLEWIGIINVGGGTNYASWAKGRFTISTDNSKNTVYLQMNSLRAEDTASYYCARAVGYHHSRLDPWGCGTSVTVSS
notes: also called Cone XIV

IC50 (nM), Alternative Pathway, MAC deposition (WEISLAB, human serum) [7]: 548 nM | IC50 (nM), Classical Pathway, MAC deposition (WEISLAB, human serum) [7]: 56 nM | IC50 (nM), Lectin Pathway, MAC deposition (WEISLAB, human serum) [7]: 58 nM
B10: Comparative Compound A3 (antibody, human IgG1, kappa, V domains shown)
VH: QVQLVQSGAEVKKPGASVKVSCKASGYTFTDFYMDWVRQAPGQRLEWMGYIYPHNGGTTYNQQFTGRVTITVDKSASTAYMELSSLRSEDTAVYYCARRGGFDFDYWGQGTLVTVSS
VL: DIQMTQSPSSLSASVGDRVTITCKASENVDTYVSWYQQKPGKAPKLLIYGASNRYTGVPSRFSGSGSGTDFTFTISSLQPEDIATYHCGQSHSYPLTFGQGTKLEIKR
IC50 (nM), Alternative Pathway, Hemolysis (rabbit erythrocytes, human serum) [7]: 207 nM | IC50 (nM), Classical Pathway, Hemolysis (antibody-sensitized sheep erythrocytes, human serum) [7]: 56 nM
